Experiments:
cMet-Fc fusion protein [1] = molecular target: T1, cMet-Fc fusion protein (Homo sapiens, UniProt P08581); assay: Protein phage ELISA: peptide-displaying phage binding to soluble cMet-Fc versus TRAIL-Fc; conditions: phage isolate; cMet-Fc vs. TRAIL-Fc
How it was run: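 Plates coated with 0.5 μg/mL cMet-Fc or, as background, TRAIL-Fc, then blocked with 3% BSA in PBST. Peptide-displaying phage bound 2 h at room temperature. Detection with HRP-anti-M13 antibody.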

[2] = molecular target: T2, 3T3 cells that over-express human cMet (Homo sapiens, UniProt P08581); assay: Whole cell ELISA of peptide-displaying phage; type: cell-based; conditions: phage isolate; 3T3 cells expressing human cMet vs. non-expressing 3T3 cells
T2 construct: expressed in transfected cells; host or cells: 3T3 cells
How it was run: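 3T3 cells over-expressing human cMet seeded 10^5/well, pelleted and fixed with 0.1% glutaraldehyde 12 min at 37 °C. Blocked peptide-displaying phage bound 1 h at room temperature; after PBST wash, bound phage detected with HRP-conjugated anti-M13 antibody.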

cMet-Fc fusion protein [3] = molecular target: T1, cMet-Fc fusion protein; assay: HGF competition protein ELISA; conditions: % of binding in the absence of HGF
Procedure: This competition ELISA identifies peptides that serve as “HGF antagonistic peptides”, peptides that block HGF-mediated signaling events (e.g., proliferation). These assays were conducted using the peptide-displaying phage discovered from the initial selection and screening campaigns using the first generation peptide libraries. Briefly, 96-well plates were coated overnight at 4 C with 0.5 μg/mL of cMet-Fc fusion protein or TRAIL-Fc fusion protein (background). The plates were blocked for 2 hours at 37 C with 3% BSA in PBST. The plates were washed with PBST, and 100 μL of HGF (either at 100 ng/mL or 500 ng/mL in PBST) was added to each well. The plates were incubated for 30 minutes at room temperature after which the plates were washed with PBST and 70 μL of HGF (143 ng/mL or 714 ng/mL) or 70 μL of PBST was added to the respective wells. This was followed by an addition of 30 μL of peptide-displaying phage overnight culture to each well. The plates were incubated for 2 hours at room temperature, washed with PBST and cMet-binding peptide-displaying phage was detected using an HRP-conjugated anti-M13 antibody.

[4] = molecular target: T3, cMet-Fc fusion protein (or similar target) (Mus musculus, UniProt P16056); assay: Fluorescence anisotropy / polarization direct binding, mouse cMet; design: key: NB = no binding; conditions: fluorescein-labeled peptide
T3 construct: Fc
Procedure: Fluorescence anisotropy measurements were performed in 384-well microplates in a volume of 10 μL in binding buffer (PBS, 0.01% Tween-20, pH 7.5) using a Tecan Polarion fluorescence polarization plate reader ([…]). The concentration of fluorescein-labeled peptide was held constant (20 nM) and the concentration of cMet-Fc fusion protein (or similar target) was varied. Binding mixtures were equilibrated for 10 minutes in the microplate at 30 C before measurement. The observed change in anisotropy was fit to the equation below via nonlinear regression to obtain the apparent KD. This equation (1) assumes that the synthetic peptide and cMet form a reversible complex in solution with 1:1 stoichiometry.
[formula] where robs is the observed anisotropy, rfree is the anisotropy of the free peptide, rbound is the anisotropy of the bound peptide, KD is the apparent dissociation constant, cMet is the total cMet concentration, and P is the total fluorescein-labeled peptide concentration. KD was calculated in a direct binding assay (KD,B) and therefore these values represent cMet binding to the fluorescein labeled peptide.

T1 sequence (P08581 25-307 limits assumed): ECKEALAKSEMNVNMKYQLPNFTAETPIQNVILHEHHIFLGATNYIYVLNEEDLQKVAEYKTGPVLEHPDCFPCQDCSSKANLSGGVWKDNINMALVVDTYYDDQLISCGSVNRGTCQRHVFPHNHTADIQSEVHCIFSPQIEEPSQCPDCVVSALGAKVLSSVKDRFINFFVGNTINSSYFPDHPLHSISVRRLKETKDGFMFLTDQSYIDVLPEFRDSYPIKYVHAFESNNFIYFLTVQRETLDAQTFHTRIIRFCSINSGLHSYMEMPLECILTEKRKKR
T1 sequence (P08581 with tags, fused parts or gaps limits assumed): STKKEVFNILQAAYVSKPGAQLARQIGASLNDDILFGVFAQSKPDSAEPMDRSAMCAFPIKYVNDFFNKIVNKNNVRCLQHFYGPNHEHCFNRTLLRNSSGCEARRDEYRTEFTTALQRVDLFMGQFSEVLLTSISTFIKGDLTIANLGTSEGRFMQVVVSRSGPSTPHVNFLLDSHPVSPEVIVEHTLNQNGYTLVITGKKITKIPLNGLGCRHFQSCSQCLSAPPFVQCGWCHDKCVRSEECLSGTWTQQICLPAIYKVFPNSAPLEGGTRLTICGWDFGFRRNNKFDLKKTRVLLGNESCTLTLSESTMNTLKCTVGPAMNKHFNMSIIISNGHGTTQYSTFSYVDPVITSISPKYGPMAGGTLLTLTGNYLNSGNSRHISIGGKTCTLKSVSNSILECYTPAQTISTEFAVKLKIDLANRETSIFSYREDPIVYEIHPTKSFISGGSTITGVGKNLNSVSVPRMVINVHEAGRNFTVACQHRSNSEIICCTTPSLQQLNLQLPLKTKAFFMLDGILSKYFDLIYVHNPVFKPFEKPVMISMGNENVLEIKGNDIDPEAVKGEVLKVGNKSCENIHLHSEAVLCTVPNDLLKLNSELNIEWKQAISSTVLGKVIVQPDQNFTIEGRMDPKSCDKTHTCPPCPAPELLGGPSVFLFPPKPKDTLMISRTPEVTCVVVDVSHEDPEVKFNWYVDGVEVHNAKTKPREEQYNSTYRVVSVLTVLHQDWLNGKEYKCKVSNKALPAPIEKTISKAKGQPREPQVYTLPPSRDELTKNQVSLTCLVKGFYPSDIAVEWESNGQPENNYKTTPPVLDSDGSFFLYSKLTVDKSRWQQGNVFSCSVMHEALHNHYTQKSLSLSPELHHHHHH
T2 sequence (P08581 25-1390): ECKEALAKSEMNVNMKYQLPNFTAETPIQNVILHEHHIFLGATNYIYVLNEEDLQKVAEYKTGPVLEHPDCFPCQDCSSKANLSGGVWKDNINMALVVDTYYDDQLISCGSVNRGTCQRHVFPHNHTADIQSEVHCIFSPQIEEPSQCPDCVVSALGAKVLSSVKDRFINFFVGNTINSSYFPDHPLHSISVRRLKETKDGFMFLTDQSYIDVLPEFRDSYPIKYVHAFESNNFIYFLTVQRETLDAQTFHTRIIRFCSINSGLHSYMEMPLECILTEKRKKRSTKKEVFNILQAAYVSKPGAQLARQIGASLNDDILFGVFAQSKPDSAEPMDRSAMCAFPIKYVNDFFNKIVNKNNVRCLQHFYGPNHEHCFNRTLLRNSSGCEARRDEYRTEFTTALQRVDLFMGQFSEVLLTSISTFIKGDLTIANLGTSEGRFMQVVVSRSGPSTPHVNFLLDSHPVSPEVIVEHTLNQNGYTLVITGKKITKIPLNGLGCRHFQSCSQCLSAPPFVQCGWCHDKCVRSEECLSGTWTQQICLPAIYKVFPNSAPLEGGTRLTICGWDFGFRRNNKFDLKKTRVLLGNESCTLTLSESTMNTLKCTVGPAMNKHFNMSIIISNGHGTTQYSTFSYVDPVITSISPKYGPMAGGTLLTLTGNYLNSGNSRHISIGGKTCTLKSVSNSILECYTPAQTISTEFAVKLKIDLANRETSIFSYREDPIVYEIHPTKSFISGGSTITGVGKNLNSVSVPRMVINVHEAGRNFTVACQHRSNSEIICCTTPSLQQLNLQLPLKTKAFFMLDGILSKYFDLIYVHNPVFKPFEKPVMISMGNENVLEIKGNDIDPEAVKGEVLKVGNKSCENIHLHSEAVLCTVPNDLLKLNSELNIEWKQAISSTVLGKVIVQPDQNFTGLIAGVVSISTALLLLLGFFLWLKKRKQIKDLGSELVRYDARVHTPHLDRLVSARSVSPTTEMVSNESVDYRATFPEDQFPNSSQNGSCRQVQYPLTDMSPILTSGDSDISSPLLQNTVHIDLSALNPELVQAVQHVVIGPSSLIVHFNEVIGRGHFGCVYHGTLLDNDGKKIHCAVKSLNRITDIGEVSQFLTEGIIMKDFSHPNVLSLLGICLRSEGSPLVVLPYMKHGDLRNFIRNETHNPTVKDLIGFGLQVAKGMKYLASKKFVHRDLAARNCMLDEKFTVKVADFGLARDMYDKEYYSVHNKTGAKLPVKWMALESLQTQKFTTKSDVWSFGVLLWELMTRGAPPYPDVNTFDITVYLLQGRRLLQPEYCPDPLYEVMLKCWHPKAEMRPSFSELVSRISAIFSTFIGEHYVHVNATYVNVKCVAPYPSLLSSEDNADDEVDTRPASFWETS
T3 sequence (P16056 25-306 limits assumed): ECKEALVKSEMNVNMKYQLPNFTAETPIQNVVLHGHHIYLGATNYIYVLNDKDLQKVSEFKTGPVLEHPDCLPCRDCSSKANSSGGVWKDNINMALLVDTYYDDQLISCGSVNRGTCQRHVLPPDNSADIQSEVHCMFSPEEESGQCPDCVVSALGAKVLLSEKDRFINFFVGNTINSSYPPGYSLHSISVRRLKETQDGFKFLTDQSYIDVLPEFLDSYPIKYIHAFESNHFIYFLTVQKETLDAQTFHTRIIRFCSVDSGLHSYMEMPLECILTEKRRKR
T3 sequence (P16056 307-929 limits assumed): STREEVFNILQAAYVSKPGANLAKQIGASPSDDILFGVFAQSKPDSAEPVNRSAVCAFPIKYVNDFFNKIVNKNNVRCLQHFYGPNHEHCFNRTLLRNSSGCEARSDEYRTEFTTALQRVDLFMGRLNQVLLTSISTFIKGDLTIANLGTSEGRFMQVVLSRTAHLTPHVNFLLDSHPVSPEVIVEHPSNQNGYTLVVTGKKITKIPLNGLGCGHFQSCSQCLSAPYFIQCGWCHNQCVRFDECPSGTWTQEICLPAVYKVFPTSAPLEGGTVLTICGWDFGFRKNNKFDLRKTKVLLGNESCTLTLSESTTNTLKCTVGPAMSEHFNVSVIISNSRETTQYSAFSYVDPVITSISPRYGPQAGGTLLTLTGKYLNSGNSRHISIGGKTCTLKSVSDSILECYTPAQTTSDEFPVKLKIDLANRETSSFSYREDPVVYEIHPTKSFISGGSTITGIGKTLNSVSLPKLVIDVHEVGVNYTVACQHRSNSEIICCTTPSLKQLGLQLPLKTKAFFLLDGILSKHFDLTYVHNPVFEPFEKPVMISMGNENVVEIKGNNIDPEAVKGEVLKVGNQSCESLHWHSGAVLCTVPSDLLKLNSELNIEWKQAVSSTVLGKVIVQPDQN

Row | Protein ELISA (cMet-Fc fusion protein [1]) [fold over background] | WC ELISA [2] [fold over background] | HGF 100 ng/mL (cMet-Fc fusion protein [3]) | HGF 500 ng/mL (cMet-Fc fusion protein [3]; HGF 500 ng/mL) [%] | Kd (mouse) [4] | Molecule
1 | 14.3 | 1.43 | 61% | 79 |  | AGWYNCSGENFWNCKWIGT (Synthetically generated cMet-binding peptide sequence) [SEQ ID NO: 082]
2 | 3.0 | 1.27 | 9S% |  |  | GSILYCINRNDPQCPYTAP (Synthetically generated cMet-binding peptide sequence) [SEQ ID NO: 101]
3 | 13.3 | 1.87 |  |  | NB | CC[C@H](C)[C@@H]1NC(=O)[C@H](CCCNC(=N)N)NC(=O)[C@H](Cc2c[nH]c3ccccc23)NC(=O)[C@@H](NC(=O)[C@@H]2CCCN2C(=O)[C@H](Cc2ccccc2)NC(=O)[C@H](Cc2ccccc2)NC(=O)[C@H](CO)NC(=O)CNC(C)=O)CSSC[C@@H](C(=O)N[C@@H](Cc2c[nH]cn2)C(=O)N[C@@H](C)C(=O)N[C@@H](CC(N)=O)C(=O)N[C@@H](C)C(=O)N2CCC[C@H]2C(=O)NCC(=O)NCC(=O)NCC(=O)N[C@@H](CCCCNC(=O)c2ccc3c(c2)C(=O)OC32c3ccc(O)cc3Oc3cc(O)ccc32)C(N)=O)NC(=O)[C@H](Cc2ccc(O)cc2)NC(=O)CNC(=O)[C@H](Cc2ccccc2)NC(=O)[C@H](CCCNC(=N)N)NC(=O)[C@H](CC(=O)O)NC1=O [SEQ ID NO: 370]
4 | 12.4 | 1.37 |  |  |  | CC[C@H](C)[C@@H]1NC(=O)[C@H](Cc2ccccc2)NC(=O)[C@H](CCC(=O)O)NC(=O)[C@@H](NC(=O)[C@H](Cc2c[nH]cn2)NC(=O)[C@H](Cc2ccccc2)NC(=O)[C@H](CC(=O)O)NC(=O)[C@H](CC(=O)O)NC(=O)CNC(C)=O)CSSC[C@@H](C(=O)N[C@@H](Cc2ccc(O)cc2)C(=O)N[C@@H](Cc2ccccc2)C(=O)N[C@@H](CC(N)=O)C(=O)N[C@@H](CC(=O)O)C(=O)N2CCC[C@H]2C(=O)NCC(=O)NCC(=O)NCC(=O)N[C@@H](CCCCNC(=O)c2ccc3c(c2)C(=O)OC32c3ccc(O)cc3Oc3cc(O)ccc32)C(N)=O)NC(=O)[C@H]([C@@H](C)CC)NC(=O)[C@H](CCC(=O)O)NC(=O)[C@H](CO)NC(=O)[C@H](CCC(N)=O)NC(=O)[C@H](Cc2ccc(O)cc2)NC(=O)[C@H](CC(=O)O)NC(=O)[C@H](CC(=O)O)NC1=O [SEQ ID NO: 391]
5 | 10.4 | 1.33 |  |  |  | GSHHTCLDGFAGWRCTEVAP (Synthetically generated cMet-binding peptide sequence) [SEQ ID NO: 366]
6 | 7.8 | 1.10 |  |  |  | AGETVCYWLNGWFCVDDGT (Synthetically generated cMet-binding peptide sequence) [SEQ ID NO: 073]
7 | 3.7 | 1.23 |  |  |  | AQMGHHWDVQWDYKLFHVARGD (Synthetically generated cMet-binding peptide sequence) [SEQ ID NO: 473]
8 | 9.7 | 1.27 |  |  |  | AGEIFCVGPPTFTCMWTGT (Synthetically generated cMet-binding peptide sequence) [SEQ ID NO: 096]
9 | 3.4 | 1.30 |  |  |  | GSFILCWWTFCDTNAP (Synthetically generated cMet-binding peptide sequence) [SEQ ID NO: 007]
10 | 3.5 | 1.33 |  |  |  | GSLIFCPYGECMMYAP (Synthetically generated cMet-binding peptide sequence) [SEQ ID NO: 005]
11 | 3.1 | 1.27 |  |  |  | AGHTICQHKALGCPANGT (Synthetically generated cMet-binding peptide sequence) [SEQ ID NO: 041]
12 | 4.6 | 1.37 |  |  |  | GSTMSCWRWGRDAYSCNQMAP (Synthetically generated cMet-binding peptide sequence) [SEQ ID NO: 372]
13 |  |  |  |  | NB | CSCC[C@@H]1NC(=O)[C@@H](NC(=O)[C@H](CCSC)NC(=O)[C@H](CCC(=O)O)NC(=O)[C@@H]2CCCN2C(=O)[C@H](CO)NC(=O)CNC(C)=O)CSSC[C@@H](C(=O)N[C@@H](CC(N)=O)C(=O)N[C@@H](Cc2c[nH]cn2)C(=O)N[C@@H](Cc2c[nH]cn2)C(=O)N[C@@H](C)C(=O)N2CCC[C@H]2C(=O)NCC(=O)NCC(=O)NCC(=O)N[C@@H](CCCCNC(=O)c2ccc3c(c2)C(=O)OC32c3ccc(O)cc3Oc3cc(O)ccc32)C(N)=O)NC(=O)[C@@H]2CCCN2C(=O)[C@H](Cc2ccc(O)cc2)NC(=O)[C@H](CC(C)C)NC(=O)[C@H](Cc2ccccc2)NC(=O)[C@@H]2CCCN2C(=O)[C@H](Cc2ccccc2)NC(=O)[C@H](CCSC)NC1=O [SEQ ID NO: 369]
14 | 3.3 | 1.37 |  |  |  | GSSHCNQMITPWQNCGMRAP (Synthetically generated cMet-binding peptide sequence) [SEQ ID NO: 374]
15 | 8.9 | 1.23 |  |  |  | CC[C@H](C)[C@H](NC(=O)[C@H](Cc1ccccc1)NC(=O)[C@H](CCC(N)=O)NC(=O)[C@H](Cc1ccccc1)NC(=O)[C@@H](NC(=O)[C@H](Cc1c[nH]c2ccccc12)NC(=O)[C@@H](NC(=O)[C@H](CC(=O)O)NC(=O)[C@H](Cc1ccc(O)cc1)NC(=O)[C@H](CCC(N)=O)NC(=O)[C@H](C)NC(C)=O)[C@@H](C)O)C(C)C)C(=O)N[C@@H](Cc1c[nH]cn1)C(=O)N[C@@H](CCC(=O)O)C(=O)N[C@H](C(=O)N1CCC[C@H]1C(=O)NCC(=O)N[C@@H](CCC(=O)O)C(=O)N[C@@H](CC(C)C)C(=O)N[C@H](C(=O)N[C@@H](C)C(=O)N[C@@H](CCSC)C(=O)N[C@@H](CCC(N)=O)C(=O)NCC(=O)NCC(=O)NCC(=O)N[C@@H](CCCCNC(=O)c1ccc2c(c1)C(=O)OC21c2ccc(O)cc2Oc2cc(O)ccc21)C(N)=O)C(C)C)C(C)C [SEQ ID NO: 454]
16 | 13.5 | 1.40 |  |  |  | GDLLGCGYQEKGGEYKCRFNDP (Synthetically generated cMet-binding peptide sequence) [SEQ ID NO: 395]
17 | 16.3 | 1.23 |  |  |  | AGETKCSGPPYFYCWMEGT (Synthetically generated cMet-binding peptide sequence) [SEQ ID NO: 093]
18 | 3.1 | 1.30 |  |  |  | AGKTVCQKWESVCSGMGT (Synthetically generated cMet-binding peptide sequence) [SEQ ID NO: 038]

From patent US9845340B2, “Peptides that specifically bind HGF receptor (cMet) and uses thereof” (Dyax Corp., priority 2003, dated 2017)
